Data published in the supplement of paper PMC12855868.

B1: library; numbered along this chain (parent)
chain: MAAAGGARLLRAASAVLGGPAGRWLHHAGSRAGSSGLLRNRGPGGSAEASRSLSVSARARSSSEDKITVHFINRDGETLTTKGKVGDSLLDVVVENNLDIDGFGACEGTLACSTCHLIFEDHIYEKLDAITDEENDMLDLAYGLTDRSRLGCQICLTKSMDNMTVRVPETVADARQSIDVGKTS

Variants of: B1
Test: scaled log2 fold change in cell abundance, elesclomol vs control (0 = silent mean, 1 = nonsense mean) (scaled log2 ratio); higher = higher viability under elesclomol (loss of FDX1 cuproptosis function)
Settings: glucose 10 mM
[1] = with ABC1 FDX1 KO, elesclomol 5 nM, 14 days
[2] = with HEK293T FDX1 KO, elesclomol 40 nM, 11 days
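Also: variant abundance is its share of total variant reads in each endpoint sample, from next-generation sequencing of the integrated ORF PCR-amplified out of genomic DNA.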

Variant	scaled log2 fold change [1]	scaled log2 fold change [2]
A141N	-0.0904	0.596
A141T	0.135	0.788
A141V	0.00876	0.0536
A141W	-0.0378	-0.209
A141E	0.304	-0.297
A141D	0.178	-0.445
A141C	0.249	-1.33
A141K	0.122	-0.0127
A141R	0.0996	0.0982
A141M	-0.0992	0.123
A141L	-0.402	
A141P	0.46	-0.803
A141G	-0.119	0.016
A141Q	0.09	0.9
A141I	-0.168	0.617
A141S	-0.0824	0.987
A141F	-0.22	1.03
A141H	0.134	-0.527
T131F	-1.03	0.443
T131S	0.0867	
T131C	-0.2	-0.521
T131G	0.277	
T131E	0.357	-0.395
T131A	-0.777	0.0649

Variant	scaled log2 fold change [1]	scaled log2 fold change [2]
T131V	-0.238	0.525
T131P	0.137	-0.104
T131Y	0.17	-0.668
T131K	-0.138	2.11
T131R	-0.448	0.487
T131L	-0.29	0.562
T131M	0.154	
T131W	0.374	-0.135
T131N	0.126	-0.681
T131H	-0.186	0.267
T131Q	0.134	0.928
T131D	0.127	-0.23
T131I	-0.0956	0.347
D136A	0.243	-0.0274
D136G	0.589	0.805
D136K	0.913	0.124
D136Q	0.344	0.87
D136S	0.133	0.338
D136H	0.556	0.766
D136L	0.751	0.113
D136C	0.0368	0.938
D136Y	0.0478	-0.0361
D136W	0.188	0.105
D136T	0.611	0.431

Variant	scaled log2 fold change [1]	scaled log2 fold change [2]
D136M	0.136	-0.421
D136N	0.198	-0.651
D136V	0.459	0.696
D136F	0.493	-0.85
D136I	0.422	-0.019
D136P	0.922	1.19
D136R	0.898	1.08
D136E	0.196	0.183
M137K	-0.121	1.33
M137G	-0.0982	-0.171
M137F	-0.075	-0.7
M137E	-0.366	0.879
M137C	-0.596	-0.635
M137V	-0.0968	-0.154
M137L	0.182	1.39
M137S	-0.337	-0.153
M137H	0.073	-0.384
M137R	-0.477	-0.0264
M137D	0.813	0.152
M137Y	-0.108	1.02
M137A	-0.189	0.285
M137Q	0.0471	-0.244
M137W	-0.244	1.1
M137P	-0.0177	-0.842

Variant	scaled log2 fold change [1]	scaled log2 fold change [2]
M137N	0.119	
M137I	0.0941	0.499
M137T	0.14	-0.403
L138Q	-0.00504	0.34
L138P	1.15	0.887
L138H	0.199	0.223
L138S	0.467	0.0871
L138I	0.0896	0.0458
L138C	-0.108	0.251
L138N	0.767	0.557
L138T	-0.0362	0.287
L138K	0.41	-0.306
L138G	0.706	0.389
L138E	0.986	0.639
L138F	0.0535	-0.0648
L138Y	0.578	-0.246
L138D	1.11	1.04
L138R	-0.0868	-0.131
L138V	-0.213	-0.414
L138M	0.188	0.00846
L138W	0.885	0.749
L138A	0.519	-0.22
I130H	0.0428	0.239
I130Q	0.0588	-0.458

Variant	scaled log2 fold change [1]	scaled log2 fold change [2]
I130P	-0.462	-0.467
I130N	-0.0924	0.234
I130Y	0.33	0.102
I130S	0.236	0.715
I130K	-0.203	0.0187
I130A	0.429	
I130W	-0.285	-0.314
I130M	0.336	-0.481
I130R	-0.234	0.125
I130G	-0.279	-0.433
I130D	0.59	0.0795
I130F	0.211	-0.285
I130E	-0.051	-0.419
I130V	0.000565	-0.448
I130C	-0.188	1.38
I130L	-0.083	-0.116
I130T	-0.0905	-0.0285
E133F	-0.18	-0.56
E133N	-0.113	-0.0813
E133Q	-0.239	-0.406
E133S	-1.5	
